According to PMC7046470:
Blank lines part the entries; values can stand above or below the substance they belong to.

Key:
HA-Rtn2 (maize) [1] = target: HA-Rtn2 (maize)
[2] = target: HA-Rtn2(mAIM1,2,5,6) (maize)
HA-Rtn2 (maize) [3] = test: co-IP; anti-HA affinity gel on lysates of Arabidopsis protoplasts (wild type; also atg5-1) transiently expressing the proteins, incubated with or without 2 mM DTT or 5 μg/mL tunicamycin for 3 hr; 150 mM Tris-HCl pH 7.5, 150 mM NaCl, 1.5% Triton X-100, 2 hr at 4°C
GFP-Atg8a = test: co-immunoprecipitation, densitometry of immunoblots; details: Arabidopsis protoplasts; immunoprecipitation with anti-HA antibodies; three biological replicates; parent: est. 1.0; read off a plot
[4] = target: maize Atg8a, split-ubiquitin two-hybrid fusion; test: split-ubiquitin Y2H; details: colonies on -LWHA medium versus -LW medium, bait pBT3N-ATG8a, parent: est. 52, read off a plot

Substance: HA-Rtn2 mAIM1
ratio to parent (GFP-Atg8a): 0.87

Substance: HA-Rtn2 mAIM1,2,5,6
ratio to parent (GFP-Atg8a): 0.02

Substance: HA-Rtn2 mAIM1,5
ratio to parent (GFP-Atg8a): 0.38

Substance: maize Rtn2, split-ubiquitin two-hybrid fusion mAIM1,2,5,6
response ([4]; prey pPR3C-Rtn2(mAIM1,2,5,6)): 7%

Next, values leading:

percent of Arabidopsis protoplasts (DTT and ConA) with autophagic bodies labeled with both GFP-Atg8a and Rtn2-mCherry (Rtn2 as mCherry fusion) (HA-Rtn2 (maize) [1]): 54%
percent of Arabidopsis protoplasts (DTT and ConA) with autophagic bodies labeled with both GFP-Atg8a and Rtn2(mAIM1)-mCherry (mCherry fusion) (HA-Rtn2(mAIM1) (maize)): 42%
percent of Arabidopsis protoplasts (DTT and ConA) with autophagic bodies labeled with both GFP-Atg8a and Rtn2(mAIM1,2,5,6)-mCherry (mCherry fusion) [2]: 23%
fold increase in binding upon DTT treatment against no DTT (HA-Rtn2 (maize) [3]): 3 fold
Substance: GFP-Atg8a (natural protein)

ratio to parent (GFP-Atg8a): 0.22
Substance: HA-Rtn2 mAIM1,5,6

response ([4]; prey pPR3C-Rtn2(mAIM1)): 33%
Substance: maize Rtn2, split-ubiquitin two-hybrid fusion mAIM1

response ([4]; prey pPR3C-Rtn2(mAIM1,5)): 16%
Substance: maize Rtn2, split-ubiquitin two-hybrid fusion mAIM1,5

response ([4]; prey pPR3C-Rtn2(mAIM1,5,6)): 12%
Substance: maize Rtn2, split-ubiquitin two-hybrid fusion mAIM1,5,6
